# Experimental data: patent US20230174598A1 (UNIVERSITY OF FLORIDA RESEARCH FOUNDATION, published 2023)
# Experiments:
# [1] = target: SDM-Eno: enolase-1 with all seven corresponding charge-reversal mutations (bovine) (UniProt Q9XSJ4); experiment: anti-arrestin-1 (C10C10) immunoprecipitation pulldown of AlexaFluor546-labeled enolase-1; 5 µM each
# [2] = target: T1, bovine enolase-1 (bovine, UniProt Q9XSJ4 1-434, AlexaFluor-546 maleimide on reactive cysteines (pulldown assay only; unlabeled in the quench and activity assays)); experiment: cell-based or functional assay
# T1 sequence (Q9XSJ4 whole entry): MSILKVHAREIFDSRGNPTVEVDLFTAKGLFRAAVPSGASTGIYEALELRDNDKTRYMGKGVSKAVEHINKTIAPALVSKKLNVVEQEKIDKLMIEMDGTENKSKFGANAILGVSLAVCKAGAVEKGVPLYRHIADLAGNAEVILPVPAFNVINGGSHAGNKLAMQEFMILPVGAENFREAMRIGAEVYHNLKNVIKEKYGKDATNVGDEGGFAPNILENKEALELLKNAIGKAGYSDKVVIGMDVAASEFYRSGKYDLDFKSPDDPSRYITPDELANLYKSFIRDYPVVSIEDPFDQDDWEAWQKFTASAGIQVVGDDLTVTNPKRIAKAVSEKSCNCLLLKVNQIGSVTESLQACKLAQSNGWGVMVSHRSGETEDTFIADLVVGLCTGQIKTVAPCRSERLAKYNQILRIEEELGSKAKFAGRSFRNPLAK
# [3] = target: T1, bovine enolase-1; experiment: anti-arrestin-1 (C10C10) immunoprecipitation pulldown of AlexaFluor546-labeled enolase-1; 5 µM each
# Description: E. Immunoprecipitation/Enolase Pulldown assay. The interaction between arrestin-1 and enolase-1 was assessed by using anti-arrestin-1 antibody to immunoprecipitate the arrestin-1-enolase-1 complex in which the enolase-1 was fluorescently labeled with AlexaFluor546. For this assay, 1.5 mg of Protein G-coated magnetic beads (DynaBeads, ThermoFisher), were coated with 10 μg of purified C10C10 anti-arrestin-1 monoclonal antibody (Donoso et al. (1990) S-antigen: preparation and characterization of site-specific monoclonal antibodies. Curr Eye Res 9, 343-355). Enolase-1 was labeled on its reactive cysteines with AlexaFluor-546 maleimide (ThermoFisher), reacting the enolase-1 with 100-fold molar excess of the fluorescent label. The fluorescently labeled enolase-1 was then sequentially dialyzed in LAP200^N buffer to remove any unreacted label. For the immunoprecipitation of the arrestin-1-enolase-1 complex, 5 μM arrestin-1 (or arrestin-1 variant) was mixed with 5 μM enolase-1-Alexa546 in LAP200^N in a 200 μL final volume for 2 h at 4° C., to which 10 μg of anti-arrestin-1 antibody on magnetic beads was subsequently added for 16 h with gentle rotation. The beads were magnetically captured, washed ten times with LAP200^N buffer, and then eluted with 0.1 M glycine (pH 2.5). After neutralizing the pH with 0.1 volume 1.5 M Tris base (pH 8.5), the fluorescence of the captured enolase-1-Alexa546 was measured, exciting fluorescence at 530 nm, and measuring average emission at 570-575 nm with a dual-detector fluorimeter (QM-1 steady state fluorescence spectrophotometer, Photon Technologies Inc).
# The charge-pair interactions identified in example 1 were selected to further investigate the modeled arrestin-1/enolase-1 interaction. Seven charged-pair interactions (Table 3 and FIG. 4A) were identified from the model as having the closest interactions. […] Following heterologous expression and purification, each arrestin-1 mutant was then assessed for its interaction with enolase-1, using an anti-arrestin-1 immunoprecipitation assay to pulldown fluorescently labelled enolase-1.
# [4] = target: T1, bovine enolase-1; experiment: titration of enolase-1 (0-12.5 µM) on 0.25 µM H10C-mBBr, KI quench protection
# Description: FIGS. 1A-1B. Graph illustrating optimization of fluorescence quench and quench protection.
# B. Enolase concentration. The concentration of enolase-1 that could provide protection of mBBr fluorescence from quenching by the KI was then titrated. […] 90% quench protection was selected as the criterion value, which corresponded to a 20-fold molar excess of enolase-1 to arrestin-1.
# [5] = target: T1, bovine enolase-1; experiment: KI quench protection of mBBr-labeled arrestin-1; 0.25 µM arrestin-1, 5 µM (20-fold) enolase-1
# Description: C. Quenching assay. Cysteine mutants of arrestin-1 were labeled with monobromobimane (mBBr, ThermoFisher), reacting the arrestin-1 protein with 100-fold molar excess of the fluorescent label for two hours at room temperature. The unreacted label was removed by dialyzing against three sequential changes of 500-volumes of LAP200 buffer. […] Fluorescence quenching of the mBBr fluorophore was performed using 0.25 μM mBBr-labeled arrestin-1 with 100 mM potassium iodide in the presence or absence of 5 μM bovine enolase-1 that had been heterologously expressed and purified as previously described for arrestin-1, monitoring fluorescence emission at 470 nm. To determine the degree to which enolase-1 shielded a residue from quenching by potassium iodide, a protection factor was calculated as follows: […]
# C. Mapping interaction of arrestin-1 with enolase-1. […] The fluorescence emission of the mBBr-labeled arrestin-1 with and without potassium iodide was measured to determine the range of quenching by KI. The fluorescence emission quench by KI with and without enolase-1 was then measured. A quench protection factor was calculated as described in the experimental procedures (Table 2). […] When mapped onto the surface of the arrestin-1 structure, these residues largely mapped to a single surface along the “bottom” of the arrestin protein (FIG. 2B).
# Chain of bovine wild-type arrestin-1, N-terminally His(6)-tagged (P08168 other isoform, or with tags, fused parts or gaps): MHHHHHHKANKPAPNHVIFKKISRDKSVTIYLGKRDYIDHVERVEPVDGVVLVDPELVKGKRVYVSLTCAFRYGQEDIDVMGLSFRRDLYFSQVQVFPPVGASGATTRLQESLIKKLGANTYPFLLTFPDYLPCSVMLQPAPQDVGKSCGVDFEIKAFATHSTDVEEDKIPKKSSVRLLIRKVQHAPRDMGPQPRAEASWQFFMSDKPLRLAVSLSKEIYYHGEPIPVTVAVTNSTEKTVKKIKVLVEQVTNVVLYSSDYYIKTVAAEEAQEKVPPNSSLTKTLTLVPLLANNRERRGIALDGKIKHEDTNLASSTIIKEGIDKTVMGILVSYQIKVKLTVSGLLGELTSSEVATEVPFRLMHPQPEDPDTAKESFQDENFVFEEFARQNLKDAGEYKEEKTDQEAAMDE
# Chain of SDM-Eno: enolase-1 with all seven corresponding charge-reversal mutations (bovine) (Q9XSJ4 whole entry, change not shown): as the sequence (Q9XSJ4 whole entry) above
Molecule,% inhibition of enolase-1 catalytic activity [2] [%],reduction of enolase-1 pulldown relative to wild-type arrestin-1 [3] [%],also measured
"bovine wild-type arrestin-1, N-terminally His(6)-tagged (from UniProt P08168 2-404)",–,–,decrease of pulldown compared to pulldown of wild-type enolase-1 [1]: > 80%
E361A/D362G arrestin-1 variant (bovine) (other) MHHHHHHKANKPAPNHVIFKKISRDKSVTIYLGKRDYIDHVERVEPVDGVVLVDPELVKGKRVYVSLTCAFRYGQEDIDVMGLSFRRDLYFSQVQVFPPVGASGATTRLQESLIKKLGANTYPFLLTFPDYLPCSVMLQPAPQDVGKSCGVDFEIKAFATHSTDVEEDKIPKKSSVRLLIRKVQHAPRDMGPQPRAEASWQFFMSDKPLRLAVSLSKEIYYHGEPIPVTVAVTNSTEKTVKKIKVLVEQVTNVVLYSSDYYIKTVAAEEAQEKVPPNSSLTKTLTLVPLLANNRERRGIALDGKIKHEDTNLASSTIIKEGIDKTVMGILVSYQIKVKLTVSGLLGELTSSEVATEVPFRLMHPQPAGPDTAKESFQDENFVFEEFARQNLKDAGEYKEEKTDQEAAMDE,1.3,–,–
E361G/D362A arrestin-1 variant (bovine) (other) MHHHHHHKANKPAPNHVIFKKISRDKSVTIYLGKRDYIDHVERVEPVDGVVLVDPELVKGKRVYVSLTCAFRYGQEDIDVMGLSFRRDLYFSQVQVFPPVGASGATTRLQESLIKKLGANTYPFLLTFPDYLPCSVMLQPAPQDVGKSCGVDFEIKAFATHSTDVEEDKIPKKSSVRLLIRKVQHAPRDMGPQPRAEASWQFFMSDKPLRLAVSLSKEIYYHGEPIPVTVAVTNSTEKTVKKIKVLVEQVTNVVLYSSDYYIKTVAAEEAQEKVPPNSSLTKTLTLVPLLANNRERRGIALDGKIKHEDTNLASSTIIKEGIDKTVMGILVSYQIKVKLTVSGLLGELTSSEVATEVPFRLMHPQPGAPDTAKESFQDENFVFEEFARQNLKDAGEYKEEKTDQEAAMDE,8.3,–,–
"E361G/D362G arrestin-1 variant (bovine, His(6)-tagged) (other) MHHHHHHKANKPAPNHVIFKKISRDKSVTIYLGKRDYIDHVERVEPVDGVVLVDPELVKGKRVYVSLTCAFRYGQEDIDVMGLSFRRDLYFSQVQVFPPVGASGATTRLQESLIKKLGANTYPFLLTFPDYLPCSVMLQPAPQDVGKSCGVDFEIKAFATHSTDVEEDKIPKKSSVRLLIRKVQHAPRDMGPQPRAEASWQFFMSDKPLRLAVSLSKEIYYHGEPIPVTVAVTNSTEKTVKKIKVLVEQVTNVVLYSSDYYIKTVAAEEAQEKVPPNSSLTKTLTLVPLLANNRERRGIALDGKIKHEDTNLASSTIIKEGIDKTVMGILVSYQIKVKLTVSGLLGELTSSEVATEVPFRLMHPQPGGPDTAKESFQDENFVFEEFARQNLKDAGEYKEEKTDQEAAMDE",0.7,–,–
"R29E arrestin-1 (bovine, His(6)-tagged charge-reversal mutant) (other) MHHHHHHKANKPAPNHVIFKKISRDKSVTIYLGKEDYIDHVERVEPVDGVVLVDPELVKGKRVYVSLTCAFRYGQEDIDVMGLSFRRDLYFSQVQVFPPVGASGATTRLQESLIKKLGANTYPFLLTFPDYLPCSVMLQPAPQDVGKSCGVDFEIKAFATHSTDVEEDKIPKKSSVRLLIRKVQHAPRDMGPQPRAEASWQFFMSDKPLRLAVSLSKEIYYHGEPIPVTVAVTNSTEKTVKKIKVLVEQVTNVVLYSSDYYIKTVAAEEAQEKVPPNSSLTKTLTLVPLLANNRERRGIALDGKIKHEDTNLASSTIIKEGIDKTVMGILVSYQIKVKLTVSGLLGELTSSEVATEVPFRLMHPQPEDPDTAKESFQDENFVFEEFARQNLKDAGEYKEEKTDQEAAMDE",–,~25,–
"H10C arrestin-1 (bovine, His(6), C63A/C143A) labeled with monobromobimane (other, monobromobimane (mBBr) on Cys 10, Cysteine-substitution mutant, made in Pichia pastoris; also called H10C-mBBr) MHHHHHHKANKPAPNCVIFKKISRDKSVTIYLGKRDYIDHVERVEPVDGVVLVDPELVKGKRVYVSLTAAFRYGQEDIDVMGLSFRRDLYFSQVQVFPPVGASGATTRLQESLIKKLGANTYPFLLTFPDYLPCSVMLQPAPQDVGKSAGVDFEIKAFATHSTDVEEDKIPKKSSVRLLIRKVQHAPRDMGPQPRAEASWQFFMSDKPLRLAVSLSKEIYYHGEPIPVTVAVTNSTEKTVKKIKVLVEQVTNVVLYSSDYYIKTVAAEEAQEKVPPNSSLTKTLTLVPLLANNRERRGIALDGKIKHEDTNLASSTIIKEGIDKTVMGILVSYQIKVKLTVSGLLGELTSSEVATEVPFRLMHPQPEDPDTAKESFQDENFVFEEFARQNLKDAGEYKEEKTDQEAAMDE",–,–,quench protection at 20-fold molar excess of enolase-1 [4]: 90%; F(A+E+K) (fluorescence with enolase-1 and KI) [5]: 10300; Pf (quench protection factor) [5]: 0.792

# More lines, main results first:
% inhibition of enolase-1 catalytic activity [2] [%],reduction of enolase-1 pulldown relative to wild-type arrestin-1 [3] [%],Molecule,also measured
–,~25,"E361K arrestin-1 (bovine, His(6)-tagged charge-reversal mutant) (other) MHHHHHHKANKPAPNHVIFKKISRDKSVTIYLGKRDYIDHVERVEPVDGVVLVDPELVKGKRVYVSLTCAFRYGQEDIDVMGLSFRRDLYFSQVQVFPPVGASGATTRLQESLIKKLGANTYPFLLTFPDYLPCSVMLQPAPQDVGKSCGVDFEIKAFATHSTDVEEDKIPKKSSVRLLIRKVQHAPRDMGPQPRAEASWQFFMSDKPLRLAVSLSKEIYYHGEPIPVTVAVTNSTEKTVKKIKVLVEQVTNVVLYSSDYYIKTVAAEEAQEKVPPNSSLTKTLTLVPLLANNRERRGIALDGKIKHEDTNLASSTIIKEGIDKTVMGILVSYQIKVKLTVSGLLGELTSSEVATEVPFRLMHPQPKDPDTAKESFQDENFVFEEFARQNLKDAGEYKEEKTDQEAAMDE",–
–,~25,"D362K arrestin-1 (bovine, His(6)-tagged charge-reversal mutant) (other) MHHHHHHKANKPAPNHVIFKKISRDKSVTIYLGKRDYIDHVERVEPVDGVVLVDPELVKGKRVYVSLTCAFRYGQEDIDVMGLSFRRDLYFSQVQVFPPVGASGATTRLQESLIKKLGANTYPFLLTFPDYLPCSVMLQPAPQDVGKSCGVDFEIKAFATHSTDVEEDKIPKKSSVRLLIRKVQHAPRDMGPQPRAEASWQFFMSDKPLRLAVSLSKEIYYHGEPIPVTVAVTNSTEKTVKKIKVLVEQVTNVVLYSSDYYIKTVAAEEAQEKVPPNSSLTKTLTLVPLLANNRERRGIALDGKIKHEDTNLASSTIIKEGIDKTVMGILVSYQIKVKLTVSGLLGELTSSEVATEVPFRLMHPQPEKPDTAKESFQDENFVFEEFARQNLKDAGEYKEEKTDQEAAMDE",–
